Experimental findings from article PMC6211522 are described below.

One may read the stoichiometry N as the number of molecules, sites or subunits per partner or assembly. By Kd is commonly meant the constant that tells how readily two partners part at equilibrium. Higher therefore signals a looser complex.

Assay [1] has as its target MHV-68 viral PARP-1-interacting protein (vPIP; ORF49), purified recombinant (murine gammaherpesvirus 68 (MHV-68)). As to the kind of experiment: SEC-MALS; 50 mM HEPES pH 7.5, 100 mM NaCl; WTC-050S5 column, DAWN HELEOS II and Optilab T-rEX detectors. In general terms: Size exclusion chromatography separates by hydrodynamic size, large species first.
In assay [2] the target is His-tagged mouse PARP-1 protein (Sino Biological) (mouse) (UniProt P11103). As to the kind of experiment: SPR; […], CM5 chip; […], HBS-EP (10 mM HEPES pH 7.4, 150 mM NaCl, 3 mM EDTA, 0.005% P20); 1:1 binding model. (SPR reads the build-up and loss of mass on a sensor chip optically.)
Chain of UniProt P11103 (P11103 whole entry): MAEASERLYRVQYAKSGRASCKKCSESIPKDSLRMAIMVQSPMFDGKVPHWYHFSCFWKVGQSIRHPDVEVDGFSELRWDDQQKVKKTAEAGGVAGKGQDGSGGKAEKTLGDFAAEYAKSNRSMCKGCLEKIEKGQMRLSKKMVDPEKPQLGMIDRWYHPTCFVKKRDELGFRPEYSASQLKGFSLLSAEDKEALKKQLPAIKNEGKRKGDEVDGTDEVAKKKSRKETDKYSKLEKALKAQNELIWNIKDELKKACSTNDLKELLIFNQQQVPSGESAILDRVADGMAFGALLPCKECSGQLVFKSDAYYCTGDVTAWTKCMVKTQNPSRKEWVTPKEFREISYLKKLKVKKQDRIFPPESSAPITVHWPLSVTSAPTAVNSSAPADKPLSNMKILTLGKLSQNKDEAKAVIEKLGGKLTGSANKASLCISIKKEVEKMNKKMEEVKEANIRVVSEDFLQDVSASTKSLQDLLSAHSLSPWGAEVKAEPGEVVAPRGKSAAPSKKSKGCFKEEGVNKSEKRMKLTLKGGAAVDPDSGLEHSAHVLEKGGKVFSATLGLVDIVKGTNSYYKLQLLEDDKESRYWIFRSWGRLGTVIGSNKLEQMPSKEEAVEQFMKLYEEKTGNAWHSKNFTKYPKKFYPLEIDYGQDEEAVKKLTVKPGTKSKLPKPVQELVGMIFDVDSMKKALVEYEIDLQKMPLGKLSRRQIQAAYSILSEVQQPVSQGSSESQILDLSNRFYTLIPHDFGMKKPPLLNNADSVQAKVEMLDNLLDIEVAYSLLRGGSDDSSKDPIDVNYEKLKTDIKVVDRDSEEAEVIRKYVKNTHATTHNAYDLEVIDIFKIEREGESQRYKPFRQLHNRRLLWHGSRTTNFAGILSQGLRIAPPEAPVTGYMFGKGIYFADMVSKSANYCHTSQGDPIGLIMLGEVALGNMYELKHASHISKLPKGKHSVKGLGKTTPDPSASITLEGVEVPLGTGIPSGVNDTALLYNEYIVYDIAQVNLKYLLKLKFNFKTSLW
Assay [3] concerns the target FLAG-tagged PARP-1 in HEK293T cells (UniProt P09874). The assay is described as follows: co-IP (anti-FLAG) and Western blotting, band intensity by ImageJ. The conditions noted are these: 48 h post-transfection, parent: 1.0. Background: Immunoblotting shows a protein as a band on a membrane.
Chain of UniProt P09874 (P09874 whole entry): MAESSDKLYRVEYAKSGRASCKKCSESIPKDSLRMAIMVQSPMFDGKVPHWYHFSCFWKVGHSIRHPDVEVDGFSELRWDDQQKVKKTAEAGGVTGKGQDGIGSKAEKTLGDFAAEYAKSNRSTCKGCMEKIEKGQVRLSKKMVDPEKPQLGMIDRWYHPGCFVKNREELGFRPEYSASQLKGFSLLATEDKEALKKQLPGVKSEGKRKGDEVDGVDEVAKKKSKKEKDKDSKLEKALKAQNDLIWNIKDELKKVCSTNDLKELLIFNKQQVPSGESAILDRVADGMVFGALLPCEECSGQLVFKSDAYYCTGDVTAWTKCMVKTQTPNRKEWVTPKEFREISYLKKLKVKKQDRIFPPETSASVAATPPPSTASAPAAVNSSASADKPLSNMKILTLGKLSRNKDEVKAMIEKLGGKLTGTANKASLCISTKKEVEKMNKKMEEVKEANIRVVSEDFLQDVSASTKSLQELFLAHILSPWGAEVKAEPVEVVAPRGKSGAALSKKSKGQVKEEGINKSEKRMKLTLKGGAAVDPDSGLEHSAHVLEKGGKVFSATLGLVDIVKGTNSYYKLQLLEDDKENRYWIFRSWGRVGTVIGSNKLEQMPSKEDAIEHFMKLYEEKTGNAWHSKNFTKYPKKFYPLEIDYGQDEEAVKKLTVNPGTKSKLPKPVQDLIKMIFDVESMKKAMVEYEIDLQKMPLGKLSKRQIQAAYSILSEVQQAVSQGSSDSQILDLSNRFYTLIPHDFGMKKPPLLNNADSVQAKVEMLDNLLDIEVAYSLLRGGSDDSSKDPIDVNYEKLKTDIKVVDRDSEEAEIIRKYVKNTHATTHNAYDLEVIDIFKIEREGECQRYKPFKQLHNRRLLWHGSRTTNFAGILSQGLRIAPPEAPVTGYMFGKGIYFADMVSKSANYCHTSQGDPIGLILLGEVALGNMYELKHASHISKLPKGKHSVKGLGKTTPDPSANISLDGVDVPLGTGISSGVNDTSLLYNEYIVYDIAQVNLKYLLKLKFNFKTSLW

Consider “MHV-68 viral PARP-1-interacting protein (vPIP; ORF49), purified recombinant (natural protein)”, for which, in assay [1], the stoichiometry N turned out to be 2. In assay [2], this substance had a Kd of 930 nM.

On to “MYC-tagged vPIP wild type in HEK293T cells F5A; S12A; T16A”, for which the ratio to parent in assay [3] was determined as 0.5.

Turning to “MYC-tagged vPIP wild type in HEK293T cells F5A; S12A; T16A; H47A; D50A”, the ratio to parent in assay [3] came to 0.3.

As to “MYC-tagged vPIP wild type in HEK293T cells H47A; D50A”, the ratio to parent in assay [3] was 1.4.

“ORF49_(KSHV), purified recombinant (natural protein)” came in with a Kd in assay [2] of 410 nM.
